Laboratory results: patent publication US20170355774A1 (Regeneron, published 2017)

T1: hGITR.mmh (human)
T1 construct: soluble monomeric construct; also called human (h) GITR.mmh; monomeric human GITR
T1 chain: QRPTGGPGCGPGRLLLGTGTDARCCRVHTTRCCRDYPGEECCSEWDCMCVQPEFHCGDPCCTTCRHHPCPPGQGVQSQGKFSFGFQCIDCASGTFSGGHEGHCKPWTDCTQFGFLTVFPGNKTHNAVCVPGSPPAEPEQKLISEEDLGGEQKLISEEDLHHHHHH

T2: mfGITR.mmh (Macaca fasicularis)
T2 construct: soluble monomeric construct; also called Macaca fasicularis (mf) GITR.mmh; cynomolgus GITR protein
T2 chain: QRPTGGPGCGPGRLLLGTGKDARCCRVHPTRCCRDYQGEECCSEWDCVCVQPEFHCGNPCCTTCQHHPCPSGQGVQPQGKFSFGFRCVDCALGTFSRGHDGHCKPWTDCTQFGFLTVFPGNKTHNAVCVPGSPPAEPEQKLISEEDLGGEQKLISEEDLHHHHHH

T3: hGITR.mFc (human)
T3 construct: soluble dimeric construct with mouse Fc; also called dimeric human GITR
T3 chain: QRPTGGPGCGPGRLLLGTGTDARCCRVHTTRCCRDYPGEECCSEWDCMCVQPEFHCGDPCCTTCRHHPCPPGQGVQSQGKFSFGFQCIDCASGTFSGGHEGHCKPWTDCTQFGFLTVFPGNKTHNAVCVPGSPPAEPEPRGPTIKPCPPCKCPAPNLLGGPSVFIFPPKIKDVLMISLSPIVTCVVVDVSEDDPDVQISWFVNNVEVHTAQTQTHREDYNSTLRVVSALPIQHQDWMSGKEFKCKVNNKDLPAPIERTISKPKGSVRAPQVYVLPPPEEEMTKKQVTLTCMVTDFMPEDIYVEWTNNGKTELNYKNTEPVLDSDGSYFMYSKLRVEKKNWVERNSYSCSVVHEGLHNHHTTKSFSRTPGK

T4: human GITR (amino acids M1-V241, NCBI Accession #NP_004186.1) expressed on cells (human, UniProt Q9Y5U5 26-241)
T4 construct: also called hGITR; hGITR/HEK293-D9
T4 sequence: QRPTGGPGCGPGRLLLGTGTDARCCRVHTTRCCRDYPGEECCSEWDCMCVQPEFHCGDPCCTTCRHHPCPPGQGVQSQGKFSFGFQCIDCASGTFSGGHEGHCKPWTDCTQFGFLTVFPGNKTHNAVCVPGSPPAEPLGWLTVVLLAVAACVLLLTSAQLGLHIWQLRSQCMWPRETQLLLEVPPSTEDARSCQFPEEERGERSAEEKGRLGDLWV


Key:
hGITR.mmh = target: T1, hGITR.mmh; assay: SPR 37C, mAb capture
mfGITR.mmh = target: T2, mfGITR.mmh; assay: SPR 37C, mAb capture
hGITR.mFc = target: T3, hGITR.mFc; assay: SPR 37C, mAb capture
[1] = target: T4, human GITR (amino acids M1-V241, NCBI …); assay: ECL cell binding, hGITR/HEK293-D9
In short: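 Cells blocked with 2% BSA, then antibody dilutions from 1.7 pM to 100 nM added 1 h at RT. Bound antibody detected with SULFO-TAG anti-human kappa antibody, electrochemiluminescence read, RLU fitted by four-parameter logistic; signal at 100 nM on hGITR cells versus parental cells also recorded.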

[2] = target: T4, human GITR (amino acids M1-V241, NCBI …); assay: cell-based or functional assay
[3] = target: T4, human GITR (amino acids M1-V241, NCBI …); assay: cell-based or functional assay; remark: listed apart in the source
[4] = target: T4, human GITR (amino acids M1-V241, NCBI …); assay: cell-based or functional assay; remark: listed apart in the source
[5] = target: T4, human GITR (amino acids M1-V241, NCBI …); assay: cell-based or functional assay; remark: listed apart in the source

| Binder | Kd (hGITR.mmh) [nM] | koff (hGITR.mmh) [s⁻¹] | kon (hGITR.mmh) [M⁻¹ s⁻¹] | t½ (hGITR.mmh) [min] | Kd (mfGITR.mmh) [nM] | koff (mfGITR.mmh) [s⁻¹] | kon (mfGITR.mmh) [M⁻¹ s⁻¹] | t½ (mfGITR.mmh) [min] | Kd (hGITR.mFc) [nM] | koff (hGITR.mFc) [s⁻¹] | kon (hGITR.mFc) [M⁻¹ s⁻¹] | t½ (hGITR.mFc) [min] | Average Signal (RLU) at 100 nM [1] [RLU] | EC50 [1] [nM] | % Activation, NF-kB-Luc, non-anchored [2] [%] | % Blocking, NF-kB-Luc, non-anchored [2] [%] | EC50, hGITR activation, NF-kB-Luc, non-anchored [2] [nM] | IC50, blocking of hGITRL stimulation, NF-kB-Luc, non-anchored [2] [nM] | fold activation, T-cell proliferation, 22 nM, non-anchored, donor 1 [3] [fold] | fold activation, T-cell proliferation, 22 nM, non-anchored, donor 2 [3] [fold] | further results |
| --- | --- | --- | --- | --- | --- | --- | --- | --- | --- | --- | --- | --- | --- | --- | --- | --- | --- | --- | --- | --- | --- |
| H4H14525P (antibody, human IgG4, V domains shown, human IgG4 (H4H)) VH: QVQLVESGGGVVQPGRSLRLSCAASGFTFSSYGMHWVRQAPGKGLEWVAVIWYVGSNKYYGESVKGRFTISRDNSKNTLYLQMNSLRDEDTAIYYCARGGQLGSFYYYGMDVWGQGTTVTVSS VL: DIQMTQSPSSLSASVGDRVTITCRASQGIRNDLGWYQQKPGKAPKRLIYDVSSLQSGVPSRFSGSGSGTEFTLTISSLQPEDLATYYCLQHNSYPWTFGQGTKVEIK | 52.4 | 0.0166 | 317000 | 0.7 | 155 | 0.0205 | 133000 | 0.6 | 0.427 | 0.000338 | 791000 | 34.2 | 8840 | 0.6 | 20 | 70 | 1.1 | 1.4 | 0.7 | 1 | fold activation, T-cell proliferation, 22 nM, non-anchored, donor 3 [3]: 0.9 fold; fold activation, T-cell proliferation, 22 nM, non-anchored, donor 4 [3]: 1 fold; fold activation, T-cell proliferation, 22 nM, non-anchored, mean [3]: 0.9 fold; fold activation, T-cell proliferation, 33 nM, FcgR anchored, donor 1 [4]: 1.2 fold; fold activation, T-cell proliferation, 33 nM, FcgR anchored, donor 2 [4]: 0.8 fold; fold activation, T-cell proliferation, 33 nM, FcgR anchored, donor 3 [4]: 1 fold; fold activation, T-cell proliferation, 33 nM, FcgR anchored, donor 4 [4]: 1.5 fold; fold activation, T-cell proliferation, 33 nM, FcgR anchored, donor 5 [4]: 1.5 fold; fold activation, T-cell proliferation, 33 nM, FcgR anchored, mean [4]: 1.2 fold; fold activation, T-cell proliferation, plate-bound Ab 10.6 nM, donor 1 [5]: 6 fold; fold activation, T-cell proliferation, plate-bound Ab 10.6 nM, donor 2 [5]: 1 fold; fold activation, T-cell proliferation, plate-bound Ab 10.6 nM, donor 3 [5]: 1 fold; fold activation, T-cell proliferation, plate-bound Ab 10.6 nM, donor 4 [5]: 2 fold; fold activation, T-cell proliferation, plate-bound Ab 10.6 nM, donor 5 [5]: 1 fold; fold activation, T-cell proliferation, plate-bound Ab 10.6 nM, donor 6 [5]: 3 fold; fold activation, T-cell proliferation, plate-bound Ab 10.6 nM, donor 7 [5]: 2 fold; fold activation, T-cell proliferation, plate-bound Ab 10.6 nM, donor 8 [5]: 1 fold; fold activation, T-cell proliferation, plate-bound Ab 10.6 nM, mean [5]: 2 fold |
| H4H14508P (antibody, human IgG4, V domains shown, human IgG4 (H4H)) VH: QVQLVESGGGVVQPGRSLRLSCAASGLTVSSYVMHWVRQAPGKGLEWVAIIWYDGSNKYYGDSVKGRFTISRDNSKKTLYLQMNSLRAEDTAVYYCARGRPLSSSSSDYYGLDVWGQGTTVTVSS VL: AIQMTQSPSSLSASVGDRVTIICRASQGIRNDLGWYQQKPGKAPNLLIYAASSLQSGVPSRFSGSGSGTDFTLTISSLQPEDFATYYCLQDYNYPWTFGQGTKVEIK | 36.6 | 0.00935 | 255000 | 1.2 | 39.3 | 0.00507 | 129000 | 2.3 | 0.597 | 0.000719 | 1.21e+06 | 16.1 | 6870 | 0.45 | 30 | 40 | 1.2 | 0.9 | 0.7 | 0.9 | fold activation, T-cell proliferation, 22 nM, non-anchored, donor 3 [3]: 0.9 fold; fold activation, T-cell proliferation, 22 nM, non-anchored, donor 4 [3]: 1.4 fold; fold activation, T-cell proliferation, 22 nM, non-anchored, mean [3]: 1 fold; fold activation, T-cell proliferation, 33 nM, FcgR anchored, donor 1 [4]: 1 fold; fold activation, T-cell proliferation, 33 nM, FcgR anchored, donor 2 [4]: 0.7 fold; fold activation, T-cell proliferation, 33 nM, FcgR anchored, donor 3 [4]: 1.1 fold; fold activation, T-cell proliferation, 33 nM, FcgR anchored, donor 4 [4]: 1.8 fold; fold activation, T-cell proliferation, 33 nM, FcgR anchored, donor 5 [4]: 1.3 fold; fold activation, T-cell proliferation, 33 nM, FcgR anchored, mean [4]: 1.2 fold; fold activation, T-cell proliferation, plate-bound Ab 10.6 nM, donor 1 [5]: 10 fold; fold activation, T-cell proliferation, plate-bound Ab 10.6 nM, donor 2 [5]: 4 fold; fold activation, T-cell proliferation, plate-bound Ab 10.6 nM, donor 3 [5]: 4 fold; fold activation, T-cell proliferation, plate-bound Ab 10.6 nM, donor 4 [5]: 7 fold; fold activation, T-cell proliferation, plate-bound Ab 10.6 nM, donor 5 [5]: 4 fold; fold activation, T-cell proliferation, plate-bound Ab 10.6 nM, donor 6 [5]: 11 fold; fold activation, T-cell proliferation, plate-bound Ab 10.6 nM, donor 7 [5]: 3 fold; fold activation, T-cell proliferation, plate-bound Ab 10.6 nM, donor 8 [5]: 2 fold; fold activation, T-cell proliferation, plate-bound Ab 10.6 nM, mean [5]: 5 fold |
